Measurements published in US20050042227A1.

Molecular target: LRP
Assay: cell-based or functional assay

Kuptake ratio (fusion/enzyme), RAP-IDU against rhIDU, fibroblast (ratio (fusion/enzyme)): 25 | Uptake ratio (fusion/enzyme), RAP-IDU against rhIDU, fibroblast, 5 nM (ratio (fusion/enzyme)): 7 | Uptake ratio (fusion/enzyme), RAP-IDU against rhIDU, fibroblast, 50 nM (ratio (fusion/enzyme)): 27 | Uptake ratio (fusion/enzyme), RAP-IDU against rhIDU, fibroblast, saturation (ratio (fusion/enzyme)): 43
B1: RAP-IDU fusion (human RAP fused N-terminally to human alpha-L-iduronidase) (protein)
chain: SYSREKNQPKPSPKRESGEEFRMEKLNQLWEKAQRLHLPPVRLAELHADLKIQERDELAWKKLKLDGLDEDGEKEARLIRNLNVILAKYGLDGKKDARQVTSNSLSGTQEDGLDDPRLEKLWHKAKTSGKFSGEELDKLWREFLHHKEKVHEYNVLLETLSRTEEIHENVISPSDLSDIKGSVLHSRHTELKEKLRSINQGLDRLRRVSHQGYSTEAEFEEPRVIDLWDLAQSANLTDKELEAFREELKHFEAKIEKHNHYQKQLEIAHEKLRHAESVGDGERVSRSREKHALLEGRTKELGYTVKKHLQDLSGRISRARAEAETGEAPHLVHVDAARALWPLRRFWRSTGFCPPLPHSQADQYVLSWDQQLNLAYVGAVPHRGIKQVRTHWLLELVTTRGSTGRGLSYNFTHLDGYLDLLRENQLLPGFELMGSASGHFTDFEDKQQVFEWKDLVSSLARRYIGRYGLAHVSKWNFETWNEPDHHDFDNVSMTMQGFLNYYDACSEGLRAASPALRLGGPGDSFHTPPRSPLSWGLLRHCHDGTNFFTGEAGVRLDYISLHRKGARSSISILEQEKVVAQQIRQLFPKFADTPIYNDEADPLVGWSLPQPWRADVTYAAMVVKVIAQHQNLLLANTTSAFPYALLSNDNAFLSYHPHPFAQRTLTARFQVNNTRPPHVQLLRKPVLTAMGLLALLDEEQLWAEVSQAGTVLDSNHTVGVLASAHRPQGPADAWRAAVLIYASDDTRAHPNRSVAVTLRLRGVPPGPGLVYVTRYLDNGLCSPDGEWRRLGRPVFPTAEQFRRMRAAEDPVAAAPRPLPAGGRLTLRPALRLPSLLLVHVCARPEKPPGQVTRLRALPLTQGQLVLVWSDEHVGSKCLWTYEIQFSQDGKAYTPVSRKPSTFNLFVFSPDTGAVSGSYRVRALDYWARPGPFSDPVPYLEVPVPRGPPSPGNP
